# The supplement of paper PMC10724198
# ± gives the standard deviation of the averaged measurements.
# Tested on: Saccharomyces cerevisiae
# Experiment: protein stability index of tFT-peptide fusion (C-terminal peptide) (PSI (0-1 scale)); higher = more stable (slower turnover)
# Conditions: genetic background: wild type; temperature: 30 C
# Procedure: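 Multiplexed protein stability (MPS) profiling in S. cerevisiae. Random 12-aa peptides (tFT-X12 library) are fused to the C-terminus of a sfGFP-mCherry tandem fluorescent timer, after mCherry and a GGGS linker. Cells are FACS-sorted into 8 mCherry/sfGFP bins and deep-sequenced. The protein stability index (PSI) is the read-weighted bin average, scaled from 0 (unstable) to 1 (stable). Only peptides with >10 reads are reported; cells were grown at 30 °C in SC-His with glucose.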
# 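Note: PSI is a weighted mean of sequencing reads over stability bins, variants kept only with over 10 reads, mCherry proximal and sfGFP distal, peptide attached via GGGS linker.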
row,Sequence,protein stability index
1,GGVSRSRNTRWN,0.677 ± 0.026
2,SPRLPLSRPLVV,0.574 ± 0.0064
3,FRGAGAEGSGWG,0.634 ± 0.0066
4,DRRLPVSPPTIV,0.774 ± 0.12
5,SVLVLPVLFLED,0.6884 ± 0.004
6,PAGLITRSWNLV,0.565 ± 0.028
7,PFSSPPPPCRSC,0.718 ± 0.023
8,SLSLPSSVIVGS,0.624 ± 0.089
9,STICQRSTSGKG,0.657 ± 0.031
10,LPLPHPRLPPRP,0.684 ± 0.049
11,KRVGLRLCGRLT,0.704 ± 0.04
12,PPPPPLPALPHL,0.627 ± 0.023
13,SLSLVSLSPSFS,0.694 ± 0.0096
14,CHTDLPLLGTSR,0.681 ± 0.022
15,FVDWGLFAFGCL,0.796 ± 0.062
16,PPPSPPTAPAAP,0.713 ± 0.038
17,SRISSCSLVRPP,0.679 ± 0.032
18,ASGASEVGACAG,0.685 ± 0.033
19,PRYCVQQNPQDR,0.722 ± 0.044
20,GRSPEIGPHIVN,0.699 ± 0.014
21,HPPTLPPLPIPP,0.625 ± 0.0091
22,WGRGRWEMVGRT,0.693 ± 0.037
23,IKNSCAGCTRDV,0.671 ± 0.035
24,FYGFHPLALPRP,0.725 ± 0.035
25,SFFGPLADEIID,0.73 ± 0.014

row,Sequence,protein stability index
1,PPPKRTPTPQCP,0.702 ± 0.078
2,RAGFSEPCGSFS,0.668 ± 0.046
3,RRSGLTNLCSLH,0.746 ± 0.04
4,RLEKGEDREGKK,0.641 ± 0.085
5,KRVSGSEQDIAT,0.6561 ± 0.0026
6,RASRGLGWRRND,0.66 ± 0.015
7,PLLPSFPPPPAP,0.51 ± 0.014
8,VGVEIKITKEKK,0.739 ± 0.038
9,LCLWVWGSVVGG,0.6123 ± 0.0015
10,VTTPHPPAPPPP,0.765 ± 0.02
11,LSGLFMAARIFI,0.627 ± 0.06
12,PPPAPPCFAPFP,0.673 ± 0.019
13,ESKATIRTRARN,0.74 ± 0.028
14,PPPPPSPLPPRP,0.624 ± 0.045
15,VNIHVCSYGIFA,0.5071 ± 0.0025
16,GNFIGSWLHTVD,0.811 ± 0.11
17,TWAVTGDLLITR,0.815 ± 0.15
18,PPLLLRFLTIHL,0.571 ± 0.027
19,QPTPRPSPRPAC,0.672 ± 0.025
20,QGQAEREAERRS,0.6732 ± 0.0059
21,RIRTLASRRLEG,0.709 ± 0.1
22,WYFSSPPPFFSP,0.766 ± 0.058
23,MGTRRVGRQGWG,0.708 ± 0.031
24,KHYKVDAVNIRG,0.686 ± 0.035
25,GKMQIRRFISRS,0.67 ± 0.0088

row,Sequence,protein stability index
1,SNGFYVSRPIVY,0.769 ± 0.017
2,PPLPPPLSLPPP,0.657 ± 0.06
3,QTIKKKKKDKKN,0.764 ± 0.011
4,LFLWRFPSPFRA,0.661 ± 0.036
5,EINEKPGINKKI,0.6587 ± 0.0028
6,GGGGSGGAGGGG,0.641 ± 0.0089
7,CHTESKLKRKKW,0.645 ± 0.028
8,PRPPSPPPPSPA,0.808 ± 0.072
9,SCIFRGNPFLLL,0.711 ± 0.018
10,PPPLPSAPPTGT,0.706 ± 0.026
11,RALGVPPLSHLP,0.656 ± 0.036
12,SVETVSSSSVAD,0.656 ± 0.057
13,DSQSRRFDRSRN,0.671 ± 0.076
14,GVGLGGVGFRGG,0.694 ± 0.098
15,VLGLALYTLSTS,0.68 ± 0.041
16,LSVNAGWLQLCA,0.561 ± 0.018
17,SLICPPFWPPSF,0.691 ± 0.044
18,RPPRPSSSPLPP,0.719 ± 0.059
19,PPPAPPPLPTSP,0.771 ± 0.095
20,ATTPPSSLFGPL,0.768 ± 0.072
21,GVVGVGRCWGLV,0.628 ± 0.08
22,FIGLGPGVGGVW,0.704 ± 0.028
23,PPPPLPAPLSPA,0.651 ± 0.021
24,RTTHPSPPTLTV,0.629 ± 0.021
25,GSAGPWSFVGDP,0.702 ± 0.085

row,Sequence,protein stability index
1,EDFCMVEQPGVE,0.7012 ± 0.0054
2,ASRWVLLVGGGV,0.652 ± 0.056
3,GEPGQTSGREKT,0.641 ± 0.014
4,SPPHASPPVLPW,0.72 ± 0.028
5,GAAPRWSGDRRW,0.71 ± 0.06
6,FVGAYGRLCCMS,0.69 ± 0.031
7,SLSVMSAPLVGI,0.636 ± 0.056
8,EGVAGEWRGMEM,0.65 ± 0.014
9,VSVRLAINRKEW,0.6738 ± 0.00093
10,RKKKKKKENKRR,0.754 ± 0.054
11,PGALLPALPPPP,0.71 ± 0.016
12,RGARWRAGIGRG,0.739 ± 0.088
13,LSTHAPPTRLRL,0.677 ± 0.016
14,CAADYRRHLQRP,0.669 ± 0.026
15,NGLRILICNTTP,0.697 ± 0.03
16,GDWLVVRLVPSK,0.728 ± 0.013
17,FPFTLSPTLFHS,0.714 ± 0.08
18,LSPSPTSHSRLL,0.589 ± 0.024
19,NSLLSFLPDPFH,0.749 ± 0.0096
20,GRGGGEEEEEER,0.663 ± 0.024
21,APRPPSLSPSPP,0.681 ± 0.0076
22,ADAKVGVIWVAL,0.628 ± 0.08
23,PYHLFLSFSLSR,0.725 ± 0.011
24,PLPLPFGPPSLP,0.753 ± 0.15
25,GPGPRLSCLVPT,0.73 ± 0.035

row,Sequence,protein stability index
1,KQKKAKKQKKKK,0.69 ± 0.099
2,GTRGLDTPPGRD,0.663 ± 0.067
3,SAWTPPLCLLPP,0.711 ± 0.043
4,KKGKKRNKTAKQ,0.628 ± 0.062
5,PLPRAPSPPPPP,0.694 ± 0.023
6,DDIGGRKLCVRG,0.6692 ± 0.0028
7,ERKDPNTNKVKS,0.678 ± 0.0083
8,ITALYVILTRRP,0.6007 ± 0.0033
9,YRSPRSSSGSSF,0.67 ± 0.041
10,RRWGGCPGVRGC,0.666 ± 0.019
11,NKQKKKKSTKRN,0.704 ± 0.029
12,CVPPSFRPSLFD,0.75 ± 0.015
13,VVNVVGRVVPKG,0.7396 ± 0.006
14,GRRPDEQRQTIG,0.677 ± 0.0071
15,KKEQKFKEDSDR,0.677 ± 0.019
16,CWASTFGLGFLP,0.757 ± 0.0022
17,RWLGGTGGWKSR,0.673 ± 0.041
18,EVVEDGAEEVGR,0.685 ± 0.053
19,RHSSRYLIEFDN,0.744 ± 0.03
20,DYLDYPSYNDLT,0.599 ± 0.038
21,GAVTWGGAGVGV,0.694 ± 0.022
22,SLLVSRVVFRGN,0.769 ± 0.12
23,PPPPPHALSPPP,0.664 ± 0.011
24,CRLRLVYCVKYD,0.621 ± 0.013
25,VIFFLPWYTPHP,0.6919 ± 0.0023

row,Sequence,protein stability index
1,FSLWPVRFVVDR,0.679 ± 0.041
2,EQKVRSPIEMML,0.591 ± 0.0064
3,PLRPPCPLPPRT,0.6031 ± 0.0056
4,VGDVGESMWGLG,0.727 ± 0.091
5,HPVLGPNRVINI,0.71 ± 0.087
6,WGVGWVLEVLLG,0.529 ± 0.0066
7,PPPPLSPPPAPA,0.682 ± 0.048
8,LNLTAPPPPHLV,0.6721 ± 0.0066
9,VPPPPPSRSRPV,0.713 ± 0.032
10,KQERCCEEREEK,0.729 ± 0.024
11,GGPNKRTGVWGR,0.657 ± 0.0069
12,EDILWADVPYSK,0.759 ± 0.039
13,SPPPLPTAPPPL,0.713 ± 0.066
14,PPHPFPPPPPPS,0.665 ± 0.069
15,GCRPFLLKSQTF,0.777 ± 0.11
16,TRKRIKKHSMNK,0.672 ± 0.085
17,SSHPMNQVIKDR,0.659 ± 0.13
18,PPHPPPLLPFSI,0.764 ± 0.009
19,HRPPSVNRVSLM,0.692 ± 0.012
20,PWGSPLMACRSC,0.694 ± 0.02
21,PPPPPLPHPVPP,0.6206 ± 0.005
22,VLFSSDLIVPQL,0.725 ± 0.018
23,TETAHNFPYCCD,0.676 ± 0.025
24,FSLPFLFCRPLS,0.6279 ± 0.0042
25,VLFLLSGPAILL,0.682 ± 0.0075

row,Sequence,protein stability index
1,YQGSFGLCRLML,0.808 ± 0.034
2,QNKKEKRHKTKT,0.648 ± 0.02
3,AQDSFGFPPPPS,0.726 ± 0.018
4,CLEGCTIHTSGE,0.652 ± 0.015
5,VSVLCADGVLRM,0.725 ± 0.028
6,GIYCSFSCKPCP,0.6699 ± 0.0042
7,GGTAYFSNRGWA,0.595 ± 0.036
8,PPLPTPPPPPDP,0.662 ± 0.052
9,KKRGNYKTTESN,0.687 ± 0.0076
10,PSSTLRLSPSSL,0.728 ± 0.023
11,EEGKSTREKEGG,0.685 ± 0.036
12,AGLLLGGRVFGW,0.708 ± 0.067
13,PLLPPPGALFLL,0.718 ± 0.057
14,PHSSSLSPCPSL,0.687 ± 0.013
15,WGRGRGEMVGRT,0.705 ± 0.038
16,PVQNVGAEVRPA,0.683 ± 0.0094
17,RRSRPSSPYLPP,0.707 ± 0.0094
18,PFSPPPSTQPSY,0.754 ± 0.15
19,TVRAPLDSARCP,0.739 ± 0.017
20,GRGIVVQNVLRQ,0.696 ± 0.011
21,WVAGPWLGRVQE,0.733 ± 0.0083
22,VVQLSKWSTIIR,0.64 ± 0.061
23,CWLGSIAGLRGR,0.7399 ± 0.0064
24,GDIRLTGLSIVS,0.638 ± 0.031
25,ASPPPPRISAWL,0.7159 ± 0.0036

row,Sequence,protein stability index
1,PPRLRSPTPFLL,0.755 ± 0.027
2,RERASCHSHTNS,0.675 ± 0.013
3,LVVALGFDDRAC,0.623 ± 0.027
4,YINQWLNVKHGD,0.635 ± 0.058
5,SVRCPPLSPRPP,0.667 ± 0.036
6,TRRRGGAREGPY,0.758 ± 0.064
7,RKDDRPYIRETS,0.701 ± 0.016
8,PVLPPCLLPTPV,0.509 ± 0.093
9,GPTSTETYKEVG,0.671 ± 0.0011
10,EDRSITYNALIL,0.678 ± 0.013
11,PLPSLPPPPPPL,0.661 ± 0.076
12,ALSPPPSLRLPF,0.7388 ± 0.0023
13,KVCIRFSCKIHM,0.6396 ± 0.0021
14,FIKTSDAVIGEK,0.563 ± 0.017
15,FSPVSSFTLTLS,0.701 ± 0.11
16,VDRAFVWYLRDL,0.695 ± 0.0076
17,SGPRRECVPRSV,0.682 ± 0.066
18,LPHVALFLLPAL,0.638 ± 0.0064
19,YMAGGQCDRLPG,0.677 ± 0.055
20,GLGKFSALSLVV,0.658 ± 0.044
21,SNAIPGSHLCRS,0.719 ± 0.093
